Measured values published in patent US20240343803A1 (SHANDONG SIMCERE BIOPHARMACEUTICAL, published 2024).

T1: full-length human TIGIT on CHO-K1 cells (CHO-K1 human TIGIT) (human, UniProt Q495A1 22-244)
T1 construct: NCBI XP_024309156.1; entry includes the signal peptide; also called high expression strain 1D2; medium expression strain 2D10
T1 sequence: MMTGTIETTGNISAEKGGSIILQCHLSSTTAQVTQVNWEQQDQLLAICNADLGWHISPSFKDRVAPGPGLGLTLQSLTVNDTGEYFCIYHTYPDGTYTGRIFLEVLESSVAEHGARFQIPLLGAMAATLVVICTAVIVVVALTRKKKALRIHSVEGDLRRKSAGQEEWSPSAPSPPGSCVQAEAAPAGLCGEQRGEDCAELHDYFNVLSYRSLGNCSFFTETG

T2: human TIGIT ECD-his (fusion protein of extracellular domain of human TIGIT and His-tag) (human)
T2 construct: entry includes the signal peptide, limits not readable here
T2 chain: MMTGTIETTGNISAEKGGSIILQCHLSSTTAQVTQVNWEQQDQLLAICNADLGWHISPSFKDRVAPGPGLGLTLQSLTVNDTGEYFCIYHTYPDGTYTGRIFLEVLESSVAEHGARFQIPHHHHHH


Experiments:
[1] = molecular target: T1, full-length human TIGIT on CHO-K1 cells …; test: cell ELISA, high expression strain
Method: (§1) After discarding the culture supernatant, the cells were fixed with a cell fixation solution (Beyotime, CAT #P0098), 50 μL/well, at room temperature for 1 hour. After washing once with 0.05% Tween 20-PBS on the Microplate Washer, the plate was added with 5% skim milk powder-PBS, 250 μL/well, and incubated at 37° C. for 2-4 hours. After washing 3 times with 0.05% Tween 20-PBS on the Microplate Washer, the plate was added with purified mouse monoclonal antibodies (diluted to 13 nM with 1% BSA, diluted by 3 fold serial dilution for 12 concentration points), 50 µL/well, incubated at 37° C. for 1.5-2 hours. […] After washing 3 times with 0.05% Tween 20-PBS on the Microplate Washer, the plate was added with TMB chromogenic solution (KPL, CAT #52-00-03), 50 μL/well, and incubated at 37° C. for 10 minutes. 1M HCL, 50 μL/well, was then added into the plate to terminate the reaction, and the OD450 nm was read by a microplate reader (Biotek, Powerwave HT). […] (c) The effect of anti-TIGIT mouse monoclonal antibodies blocking the interaction between Bio-CD155-His and CHO-K1 human TIGIT detected by FACS

[2] = molecular target: T1, full-length human TIGIT on CHO-K1 cells …; test: FACS, competition: Bio-CD155-His to CHO-K1 human TIGIT
Method: The collected cells were washed once with PBS (Hyclone, CAT #SH30256), resuspended to 2×10⁵/40 μL with 1% BSA-PBS. The antibodies were diluted to 210 nM with 1% BSA-PBS (diluted by 3-fold serial dilution for 12 concentration points). […] The 40 μL cells were then mixed with 40 μL diluted antibodies and 40 μL diluted Bio-CD155-His, and then incubated at 4° C. for 60 minutes. The cells were washed twice with PBS, resuspended with APC labeled streptavidin (dilution ratio 1:1700, Biolegend, 405243), 100 μL/well, and incubated at 4° C. for 40 minutes. The cell samples were washed twice with PBS, resuspended with 1% BSA-PBS, 100 μL/well and then analyzed by flow cytometry (BD, Canto II). […] (d) The effect of anti-TIGIT mouse monoclonal antibodies blocking the interaction between human TIGIT and CHO-K1 CD155 detected by ELISA

[3] = molecular target: T3, cynomolgus monkey TIGIT ECD-hFc (extracellular domain of cynomolgus monkey TIGIT and human IgG1 Fc fragment) (cynomolgus monkey); test: ELISA
T3 construct: entry includes the signal peptide, limits not readable here; also called cynomolgus monkey TIGIT-hFc

[4] = molecular target: T4, human TIGIT ECD-hFc (fusion protein of extracellular domain of human TIGIT and human IgG1 Fc fragment) (human); test: ELISA
T4 construct: entry includes the signal peptide, limits not readable here

[5] = molecular target: T1, full-length human TIGIT on CHO-K1 cells …; test: cell ELISA, medium expression strain
Method: as §1

[6] = molecular target: T4, human TIGIT ECD-hFc (fusion protein of …); test: cell ELISA, competition: hTIGIT ECD-hFc to CHO-K1 CD155
Method: After discarding the culture supernatant, the cells were fixed with a cell fixation solution (Beyotime, CAT #P0098), 50 μL/well, at room temperature for 1 hour. After washing once with 0.05% Tween 20-PBS on the Microplate Washer, the plate was added with 5% skim milk powder-PBS, 250 μL/well, and incubated at 37° C. for 2-4 hours. The plate was then washed 3 times with 0.05% Tween 20-PBS on the Microplate Washer. The mouse monoclonal antibodies were mixed with human TIGIT ECD-hFc (working concentration: 30 ng/mL) and incubated for 0.5 hour. The mixed solution of antigen and antibody was added to the cell plate (50 μL/well). The cells were incubated at 37° C. for 1.5-2 hours and then washed with 0.05% Tween 20-PBS for 3 times on the Microplate Washer. The cell plate was then added with 50 μL/well HRP enzyme-labeled antibodies (Merck, CAT #AP113P) diluted with 1% BSA (Sangon Biotech, CAT #A500023-0100)-PBS at a dilution ratio of 1:5000 and incubated at 37° C. for 1 hour. After washing 3 times with 0.05% Tween 20-PBS on the Microplate Washer, the plate was added with TMB chromogenic solution (KPL, CAT #52-00-03), 50 μL/well, and incubated at 37° C. for 10 minutes. 1M HCL, 50 μL/well, was then added into the plate to terminate the reaction, and the OD450 nm was read by a microplate reader (Biotek, Powerwave HT).

[7] = molecular target: T1, full-length human TIGIT on CHO-K1 cells …; test: cell ELISA, low expression strain
Method: as §1

[8] = molecular target: T2, human TIGIT ECD-his (fusion protein of …); test: BIAcore kinetics
[9] = molecular target: T5, full-length cynomolgus monkey TIGIT on CHO-K1 cells (CHO-K1 cynomolgus monkey TIGIT) (cynomolgus monkey); test: cell ELISA
T5 construct: NCBI XP_015300911.1; also called cynomolgus monkey TIGIT cells
Method: as §1

| Binder | EC50 [1] [nM] | IC50 [2] [nM] | EC50 [3] [nM] | EC50 [4] [nM] | EC50 [5] [nM] | IC50 [6] [nM] | EC50 [7] [nM] | Kd [8] [nM] | koff [8] [s⁻¹] | kon [8] [M⁻¹ s⁻¹] | EC50 [9] [nM] |
| --- | --- | --- | --- | --- | --- | --- | --- | --- | --- | --- | --- |
| RG6058-mIgG2a (antibody, V domains shown, mouse IgG2a format by its name; also called Roche RG6058; control antibody RG6058) VH: EVQLQQSGPGLVKPSQTLSLTCAISGDSVSSNSAAWNWIRQSPSRGLEWLGKTYYRFKWYSDYAVSVKGRITINPDTSKNQFSLQLNSVTPEDTAVFYCTRESTTYDLLAGPFDYWGQGTLVTVSS VL: not shown | 1.05 | 0.449 | 0.0152 | 0.0108 | 0.984 | 0.212 | 0.672 | 0.211 | 0.000141 | 669000 | 0.0791 |
| TIGIT-F2-005 (antibody, V domains shown, mouse hybridoma antibody; variable domains as printed for TIGIT-CHI-005; tie rests on the number 005 only; also called mouse antibody TIGIT-005) VH: QVQLQQSGAELVRPGTSVKVSCKASGYAFTNYLIEWVKQRPGQGLEWIGVINPGSGGTNYKEKFKGKATLTADKSSSTAYMQLSSLTSEDSAVYFCARGEYFFFDYWGQGTTLTVSS VL: DIVMTQSHKFMSTSVGDRVSITCKASQHVSNGVAWYQHKPGQSPKLLIYSASYRYTGVPDRFTGTGSGTDFTFTISSVQAEDLAVYYCQQHYNTPHTFGGGTKLEIK | 0.388 | 0.174 | 0.0147 | 0.015 | 0.386 | 0.133 | 0.231 | 0.0333 | 4.47e-05 | 1.34e+06 | 0.0778 |

Second part, the binder after the results:

| EC50 [1] [nM] | IC50 [2] [nM] | EC50 [3] [nM] | EC50 [4] [nM] | EC50 [5] [nM] | IC50 [6] [nM] | EC50 [7] [nM] | Kd [8] [nM] | koff [8] [s⁻¹] | kon [8] [M⁻¹ s⁻¹] | EC50 [9] [nM] | Binder |
| --- | --- | --- | --- | --- | --- | --- | --- | --- | --- | --- | --- |
| 0.312 | 0.204 | 0.017 | 0.0171 | 0.316 | 0.141 | 0.273 | 0.0476 | 8.08e-05 | 1.7e+06 | 0.11 | TIGIT-F2-002 (antibody, V domains shown, mouse hybridoma antibody; variable domains are those printed for the chimeric TIGIT-CHI-002 built from the mouse antibody; tie rests on the number 002 only; also called mouse antibody TIGIT-002) VH: EVQLQESGPGLAKPSQTLSLACSVTGYSITSDSWNWIRKFPGNKLEYMGYISYSGNTYYNPSLKSRISITRDTSKNQFYLQLNSVTTEDTATYYCARLDFSNYGGAVDYWGQGTSVTVSS VL: DIVMTQSHTFMSTSVGDRVSITCKASQNVRTAVAWYQQKPGQSPKLMIYSASYRYTGVPDRFTGSGSGTDFTFTISSVQAEDLAVYYCQQYYTTPWTFGGGAKLEIQ |
| 0.48 | 0.215 | 0.0327 | 0.0208 | 0.54 | 0.15 | 0.32 | 0.0414 | 3.32e-05 | 800000 | 0.0616 | TIGIT-F2-006 (antibody, V domains shown, mouse hybridoma antibody; variable domains as printed for TIGIT-CHI-006; tie rests on the number 006 only; also called mouse antibody TIGIT-006) VH: EVQLQESGPGLAKPSQTPSLTCSVTGYSMTSDYWNWIRKFPGNKLEYMGYISYSGRTYYNPSLKSRISITRDTSKNQFYLQLNSVTTEDTATYYCARGDYSNYGGAMYDWGQGTSVTVSS VL: DIVMTQSHKFMSTSVGDRVSITCRASQGVSTTIAWYQQKPGQSPKLLIYSASYRYTGVPDRFTGSGSGTDFTFTISGVQAEDLAVYYCQQYYSSPFTFGGGTKLEIK |
| 0.613 | 0.34 | 0.0043 | 0.0039 | 0.664 | 0.136 | 0.375 | 0.155 | 0.000117 | 755000 | 0.0274 | TIGIT-F5-070 (antibody, V domains shown, mouse hybridoma antibody; variable domains as printed for TIGIT-CHI-070; tie rests on the number 070 only; also called mouse antibody TIGIT-070) VH: QVQLQQPGTELVKPGASVKLSCRASGYTFTNYYMHWVKQRPGRGLEWIGRIDPDSGGSKYNEKFKSKATLTVDKLSSTAYMQLSSLTSEDSAVYYCAREGHYGFYSDYWGQGTTLTVSS VL: DIQMTQSPASLSASVGETVTITCRVSENIYSYLAWYQQKQGKSPQLLVYNAKTLAEGVPSRFSGSGSGTQFSLKINSLQPEDFGNYYCQHHYGNPLTFGAGTKLDLK |
